Literature values as cited in PMC11816975, “Bioactive Peptides from Milk Proteins with Antioxidant, Anti-Inflammatory, and Antihypertensive Activities” (Foods, 2025).

B1: cLF: isolated camel lactoferrin (protein, UniProt Q9TUM0 20-708, looked up)
Lactotransferrin: ASKKSVRWCTTSPAESSKCAQWQRRMKKVRGPSVTCVKKTSRFECIQAISTEKADAVTLDGGLVYDAGLDPYKLRPIAAEVYGTENNPQTHYYAVAIAKKGTNFQLNQLQGLKSCHTGLGRSAGWNIPMGLLRPFLDWTGPPEPLQKAVAKFFSASCVPCVDGKEYPNLCQLCAGTGENKCACSSQEPYFGYSGAFKCLQDGAGDVAFVKDSTVFESLPAKADRDQYELLCPNNTRKPVDAFQECHLARVPSHAVVARSVNGKEDLIWKLLVKAQEKFGRGKPSGFQLFGSPAGQKDLLFKDSALGLLRISSKIDSGLYLGSNYITAIRGLRETAAEVELRRAQVVWCAVGSDEQLKCQEWSRQSNQSVVCATASTTEDCIALVLKGEADALSLDGGYIYIAGKCGLVPVLAESQQSPESSGLDCVHRPVKGYLAVAVVRKANDKITWNSLRGKKSCHTAVDRTAGWNIPMGLLSKNTDSCRFDEFLSQSCAPGSDPRSKLCALCAGNEEGQNKCVPNSSERYYGYTGAFRCLAENVGDVAFVKDVTVLDNTDGKNTEQWAKDLKLGDFELLCLNGTRKPVTEAESCHLAVAPNHAVVSRIDKVAHLEQVLLRQQAHFGRNGRDCPGKFCLFQSKTKNLLFNDNTECLAKLQGKTTYEEYLGPQYVTAIAKLRRCSTSPLLEACAFLMR
B2: bLF: bovine lactoferrin, orthologue compared with eLF (protein, UniProt P24627 20-708, looked up)
Lactotransferrin: APRKNVRWCTISQPEWFKCRRWQWRMKKLGAPSITCVRRAFALECIRAIAEKKADAVTLDGGMVFEAGRDPYKLRPVAAEIYGTKESPQTHYYAVAVVKKGSNFQLDQLQGRKSCHTGLGRSAGWIIPMGILRPYLSWTESLEPLQGAVAKFFSASCVPCIDRQAYPNLCQLCKGEGENQCACSSREPYFGYSGAFKCLQDGAGDVAFVKETTVFENLPEKADRDQYELLCLNNSRAPVDAFKECHLAQVPSHAVVARSVDGKEDLIWKLLSKAQEKFGKNKSRSFQLFGSPPGQRDLLFKDSALGFLRIPSKVDSALYLGSRYLTTLKNLRETAEEVKARYTRVVWCAVGPEEQKKCQQWSQQSGQNVTCATASTTDDCIVLVLKGEADALNLDGGYIYTAGKCGLVPVLAENRKSSKHSSLDCVLRPTEGYLAVAVVKKANEGLTWNSLKDKKSCHTAVDRTAGWNIPMGLIVNQTGSCAFDEFFSQSCAPGADPKSRLCALCAGDDQGLDKCVPNSKEKYYGYTGAFRCLAEDVGDVAFVKNDTVWENTNGESTADWAKNLNREDFRLLCLDGTRKPVTEAQSCHLAVAPNHAVVSRSDRAAHVKQVLLHQQALFGKNGKNCPDKFCLFKSETKNLLFNDNTECLAKLGGRPTYEEYLGTEYVTAIANLKKCSTSPLLEACAFLTR

Key:
[1] = parameters: method as in PMID 23768340; details: at 100 µg/mL
NO production = tested on: NO production; parameters: method as in PMID 23768340; details: at 100 µg/mL

Row | Molecule | DPPH• inhibition (at 100 µg/mL, ref Habib et al. 55) | ferric reducing power [1] | inhibition of NO production (NO production) | DPPH• radical scavenging capacity (at 500 µg/mL)
1 | B1 | 2.77% | 0.317 mM Fe^2+ | about 5% | 
2 | B2 |  |  |  | approximately 33%
